Like-named read-outs stand apart in the source and are kept apart here. One block for each binder: values may come before it.
Assays:
Human GUCY2C ECD Cleaved [1] = target: T1, Human GUCY2C ECD Cleaved (human, UniProt P25092 24-430); assay: DELFIA ELISA on coated human GUCY2c
T1 construct: also called human GUCY2c extracellular domain protein (ECD)

[2] = target: T2, Human GUCY2c on tumor cells (T84, HT55) (human, UniProt P25092 24-1073); assay: cell-based or functional assay
[3] = target: T3, Human GUCY2C full length (SEQ ID NO: 224), recombinant protein (human, UniProt P25092 24-430, limits assumed); assay: SPR, anti-human IgG capture, 25 C
T3 construct: also called huGUCY2C; biotinylated human GUCY2c
T3 sequence (P25092 24-430 F281L limits assumed): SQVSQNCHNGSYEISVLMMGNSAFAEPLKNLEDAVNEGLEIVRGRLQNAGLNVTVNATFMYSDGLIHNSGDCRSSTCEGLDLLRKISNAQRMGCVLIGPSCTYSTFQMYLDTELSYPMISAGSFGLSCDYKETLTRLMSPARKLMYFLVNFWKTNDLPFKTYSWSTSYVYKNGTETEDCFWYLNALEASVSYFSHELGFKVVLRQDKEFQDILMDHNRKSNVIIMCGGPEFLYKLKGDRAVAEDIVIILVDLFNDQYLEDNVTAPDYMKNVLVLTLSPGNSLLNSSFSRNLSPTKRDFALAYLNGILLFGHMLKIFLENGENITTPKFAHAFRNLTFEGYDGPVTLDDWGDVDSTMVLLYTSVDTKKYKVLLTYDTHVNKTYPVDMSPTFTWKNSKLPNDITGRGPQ

Human CD3 epsilon-delta = target: T4, Human CD3 epsilon-delta (human); assay: SPR, CD3 captured by anti-His, 25 C
T4 construct: Single-chain epsilon-linker-delta with His6; also called huCD3
T4 chain: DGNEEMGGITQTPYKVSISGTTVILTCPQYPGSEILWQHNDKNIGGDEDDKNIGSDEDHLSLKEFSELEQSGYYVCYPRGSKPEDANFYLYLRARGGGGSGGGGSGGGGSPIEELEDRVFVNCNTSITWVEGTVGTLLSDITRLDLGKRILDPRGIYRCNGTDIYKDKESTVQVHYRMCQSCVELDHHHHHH

Human GUCY2C ECD Cleaved [4] = target: T1, Human GUCY2C ECD Cleaved; assay: direct DELFIA, RT
[5] = target: T5, Cynomolgus GUCY2C-ECD Cleaved (cynomolgus, UniProt P25092 24-430 (human entry)); assay: direct DELFIA, RT
T5 construct: also called CyGUCY2C
T5 chain: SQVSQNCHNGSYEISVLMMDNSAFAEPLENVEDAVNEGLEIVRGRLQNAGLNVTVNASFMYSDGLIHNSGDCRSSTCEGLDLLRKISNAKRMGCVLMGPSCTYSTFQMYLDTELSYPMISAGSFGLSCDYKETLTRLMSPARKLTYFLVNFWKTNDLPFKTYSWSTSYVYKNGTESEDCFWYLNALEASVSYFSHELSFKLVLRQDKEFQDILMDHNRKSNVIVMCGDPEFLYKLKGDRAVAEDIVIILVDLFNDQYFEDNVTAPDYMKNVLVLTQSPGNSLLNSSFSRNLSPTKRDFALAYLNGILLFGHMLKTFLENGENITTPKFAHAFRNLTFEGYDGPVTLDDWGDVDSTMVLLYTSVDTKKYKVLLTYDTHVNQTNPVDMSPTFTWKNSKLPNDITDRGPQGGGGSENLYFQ

[6] = target: T2, Human GUCY2c on tumor cells (T84, HT55); assay: cell-based or functional assay; remark: listed apart in the source
Human GUCY2C ECD Cleaved [7] = target: T1, Human GUCY2C ECD Cleaved; assay: direct DELFIA, 60 C
[8] = target: T5, Cynomolgus GUCY2C-ECD Cleaved; assay: direct DELFIA, 60 C
GUCY2C_ECD Peptide 19 = target: T6, GUCY2C_ECD Peptide 19 (human); assay: co-crystal structure, 1.6 A
T6 construct: also called GUCY2c peptide 19; GUCY2c-ECD peptide number 19
T6 peptide: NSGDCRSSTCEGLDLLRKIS

Human GUCY2C ECD Cleaved [9] = target: T1, Human GUCY2C ECD Cleaved; assay: SPR, human IgG1 against human GUCY2c ECD
Human GUCY2C ECD Cleaved [10] = target: T1, Human GUCY2C ECD Cleaved; assay: SPR, human IgG1

T1 sequence (P25092 other isoform, or with tags, fused parts or gaps): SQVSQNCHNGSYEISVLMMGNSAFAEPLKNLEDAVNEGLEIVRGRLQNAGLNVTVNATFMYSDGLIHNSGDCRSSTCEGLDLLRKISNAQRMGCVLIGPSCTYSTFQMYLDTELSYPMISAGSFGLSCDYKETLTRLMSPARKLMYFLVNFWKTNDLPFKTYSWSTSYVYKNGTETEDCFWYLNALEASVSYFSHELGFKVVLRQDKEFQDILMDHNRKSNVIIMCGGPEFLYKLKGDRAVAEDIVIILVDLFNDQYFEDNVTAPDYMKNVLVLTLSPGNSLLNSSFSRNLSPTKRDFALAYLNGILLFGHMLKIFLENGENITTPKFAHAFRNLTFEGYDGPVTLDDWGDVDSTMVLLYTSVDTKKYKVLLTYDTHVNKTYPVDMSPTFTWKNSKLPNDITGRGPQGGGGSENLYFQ
T2 sequence (P25092 24-1073 limits assumed): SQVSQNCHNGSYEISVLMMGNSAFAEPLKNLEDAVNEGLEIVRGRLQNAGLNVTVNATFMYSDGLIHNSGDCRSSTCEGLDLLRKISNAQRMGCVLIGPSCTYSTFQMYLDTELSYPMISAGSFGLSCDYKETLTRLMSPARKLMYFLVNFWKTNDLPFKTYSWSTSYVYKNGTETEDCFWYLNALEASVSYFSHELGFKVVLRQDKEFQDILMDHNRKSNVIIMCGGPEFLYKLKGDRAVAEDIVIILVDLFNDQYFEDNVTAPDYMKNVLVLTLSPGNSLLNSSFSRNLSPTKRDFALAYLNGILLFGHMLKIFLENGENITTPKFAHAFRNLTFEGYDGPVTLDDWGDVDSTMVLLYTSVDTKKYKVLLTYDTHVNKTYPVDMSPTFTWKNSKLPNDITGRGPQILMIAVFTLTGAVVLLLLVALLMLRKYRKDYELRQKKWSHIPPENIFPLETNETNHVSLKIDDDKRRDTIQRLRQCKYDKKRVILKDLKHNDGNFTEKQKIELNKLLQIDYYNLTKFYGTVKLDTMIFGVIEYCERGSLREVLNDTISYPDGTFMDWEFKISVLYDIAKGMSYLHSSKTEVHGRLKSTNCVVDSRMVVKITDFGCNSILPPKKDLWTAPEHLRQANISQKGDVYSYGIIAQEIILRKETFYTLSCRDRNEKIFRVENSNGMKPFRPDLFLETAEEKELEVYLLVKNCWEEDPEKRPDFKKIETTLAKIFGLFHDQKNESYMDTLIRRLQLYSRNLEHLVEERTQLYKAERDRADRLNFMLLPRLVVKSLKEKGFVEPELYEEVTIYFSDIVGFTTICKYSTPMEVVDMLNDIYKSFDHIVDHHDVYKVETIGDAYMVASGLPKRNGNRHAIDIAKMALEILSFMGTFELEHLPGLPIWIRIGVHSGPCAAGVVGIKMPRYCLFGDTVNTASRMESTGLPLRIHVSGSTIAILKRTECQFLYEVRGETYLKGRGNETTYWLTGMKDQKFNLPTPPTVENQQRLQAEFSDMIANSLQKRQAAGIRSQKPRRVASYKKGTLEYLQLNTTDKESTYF

binding result (GUCY2C_ECD Peptide 19): binds
B3: GUCY2C-1608 scFv (scFv)
scFv: EVQLVESGGGLVQPGGSLRLSCAASGFTFSSYWMHWVRQAPGKGLEWIGEIKPSNELTNVHEKFKDRFTISVDKAKNSAYLQMNSLRAEDTAVYYCTRTITTTEGYWFFDVWGQGTLVTVSSGGGGSGGGGSGGGGSGDIQLTQSPSSLSASVGDRVTITCRASESVDYYGSSLLQWYQQKPGKAPKLLIYAASKLASGVPSRFSGSGSGTDFTLTISSLQPEDFATYYCQQTRKAYTFGQGTKLEIKTGSENLYFQ

Kd (Human GUCY2C ECD Cleaved [9]): 4.07 nM | koff (Human GUCY2C ECD Cleaved [9]): 0.0011 s⁻¹ | kon (Human GUCY2C ECD Cleaved [9]): 272000 M⁻¹ s⁻¹ | fold improvement of affinity against the parent antibody (GUCY2C-1640) (Human GUCY2C ECD Cleaved [10]): 3.4 fold
B4: GUCY2C-1715 (antibody, human IgG1, V domains shown)
VH: EVQLVESGGGLVQPGGSLRLSCAASGFTFSSYWMHWVRQAPGKGLEWIGEIKPSTKYTNVHEKFKDRFTISVDKAKNSAYLQMNSLRAEDTAVYYCTRTIFTNEGYWFFDVWGQGTLVTVSS
VL: DIQLTQSPSSLSASVGDRVTITCRASESVSIYGSSLMQWYQQKPGKAPKLLIYAASKLASGVPSRFSGSGSGTDFTLTISSLQPEDFATYYCQQTRKAYTFGQGTKLEIK
notes: full human IgG1/kappa

The next lines start with the binder.

B1: GUCY2C-0118, rabbit chimeric IgG version of GUCY2C-0098 (antibody)
heavy: QVQLQQPGAELVKPGASVKLSCKASGYTFTSYWMHWVKQRPGQGLEWIGEIKPSNGLTNYIEKFKNKATLTVDKSATTAYMQLSSLTAEDSAVYYCTRTITTTEGYWFFDVWGAGTTVTVSSGQPKAPSVFPLAPCCGDTPSSTVTLGCLVKGYLPEPVTVTWNSGTLTNGVRTFPSVRQSSGLYSLSSVVSVTSSSQPVTCNVAHPATNTKVDKTVAPSTCSKPTCPPPELLGGPSVFIFPPKPKDTLMISRTPEVTCVVVDVSQDDPEVQFTWYINNEQVRTARPPLREQQFNSTIRVVSTLPIAHQDWLRGKEFKCKVHNKALPAPIEKTISKARGQPLEPKVYTMGPPREELSSRSVSLTCMINGFYPSDISVEWEKNGKAEDNYKTTPAVLDSDGSYFLYSKLSVPTSEWQRGDVFTCSVMHEALHNHYTQKSISRSPGK
light: DIVLTQSPASLAVSLGQRATISCRASESVDYYGTSLMQWYQQKPGQPPKLLIYAASNVESGVPARFSGSGSGTDFSLNIHPVEEDDIAMYFCQQTRKVYTFGGGTKLEIKGDPVAPTVLIFPPAADQVATGTVTIVCVANKYFPDVTVTWEVDGTTQTTGIENSKTPQNSADCTYNLSSTLTLTSTQYNSHKEYTCRVTQGTTSVVQSFNRGDC
notes: also called Rabbit IgG version of clone 9H3
EC50 (Human GUCY2C ECD Cleaved [1]): 0.25 µg/mL

B2: GUCY2C-1478 (bispecific antibody)
chain 1: DIQLTQSPSSLSASVGDRVTITCRASESVDYYGSSLLQWYQQKPGKAPKLLIYAASKLASGVPSRFSGSGSGTDFTLTISSLQPEDFATYYCQQTRKAYTFGQGTKLEIKGGGSGGGGEVQLVESGGGLVQPGGSLRLSCAASGFTFSDYYMTWVRQAPGKGLEWVAFIRNQARGYTSDHNPSVKGRFTISRDNAKNSLYLQMNSLRAEDTAVYYCARDRPSYYVLDYWGQGTTVTVSSGCPPCPAPEAAGAPSVFLFPPKPKDTLMISRTPEVTCVVVDVSHEDPEVKFNWYVDGVEVHNAKTKPREEQYNSTYRVVSVLTVLHQDWLNGKEYKCKVSNKALPAPIEKTISKAKGQPREPQVCTLPPSREEMTKNQVSLWCLVKGFYPSDIAVEWESNGQPENNYKTTPPVLDSDGSFFLYSKLTVDKSRWQQGNVFSCSVMHEALHNHYTQKSLSLSPG
chain 2: DIQMTQSPSSLSASVGDRVTITCTSSQSLFNVRSQKNYLAWYQQKPGKAPKLLIYWASTRESGVPSRFSGSGSGTDFTLTISSLQPEDFATYYCKQSYDLFTFGGGTKVEIKGGGGSGGGGEVQLVESGGGLVQPGGSLRLSCAASGYTFTSYWMHWVRQAPGKGLEWIGEIKPSNGLTNVHEKFKNRFTISVDKAKNSAYLQMNSLRAEDTAVYYCTRTITTTEGYWFFDVWGQGTLVTVSSGCPPCPAPEAAGAPSVFLFPPKPKDTLMISRTPEVTCVVVDVSHEDPEVKFNWYVDGVEVHNAKTKPREEQYNSTYRVVSVLTVLHQDWLNGKEYKCKVSNKALPAPIEKTISKAKGQPREPQVYTLPPCREEMTKNQVSLSCAVKGFYPSDIAVEWESNGQPENNYKTTPPVLDSDGSFFLVSKLTVDKSRWQQGNVFSCSVMHEALHNHYTQKSLSLSPG
notes: CD3-0006
T84 tumor cell EC50 (T cell cytotoxicity, E:T 5:1) [2]: 0.24 nM | Kd [3]: 3.69 nM | koff [3]: 0.000434 s⁻¹ | kon [3]: 118000 M⁻¹ s⁻¹ | Kd (Human CD3 epsilon-delta): 26.9 nM | koff (Human CD3 epsilon-delta): 0.00956 s⁻¹ | kon (Human CD3 epsilon-delta): 355000 M⁻¹ s⁻¹ | EC50 (Human GUCY2C ECD Cleaved [4]): 4.39 nM | EC50 [5]: 4.9 nM | T84 tumor cell EC50 (T cell cytotoxicity, E:T 5:1) [6]: 0.24 nM | EC50 (Human GUCY2C ECD Cleaved [7]): 19.2 nM | EC50 [8]: 15.7 nM

Reference: patent publication US20230340151A1 (Pfizer, published 2023)
